According to US20220332804A1 (CSL INNOVATION, published 2022):
Positions count from the first letter of the chain named.

Legend:
Experiment in all cases: SPR, antibody captured, C2 as analyte;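 also: biacore SPR at 37 °C, anti-C2 mAbs captured via goat anti-human IgG on CM5 chips, double-referenced sensorgrams fit to a 1:1 kinetic or steady-state model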
human C2 G414A = molecular target: T1, human C2 G414A (human, UniProt P06681 21-752)
T1 sequence: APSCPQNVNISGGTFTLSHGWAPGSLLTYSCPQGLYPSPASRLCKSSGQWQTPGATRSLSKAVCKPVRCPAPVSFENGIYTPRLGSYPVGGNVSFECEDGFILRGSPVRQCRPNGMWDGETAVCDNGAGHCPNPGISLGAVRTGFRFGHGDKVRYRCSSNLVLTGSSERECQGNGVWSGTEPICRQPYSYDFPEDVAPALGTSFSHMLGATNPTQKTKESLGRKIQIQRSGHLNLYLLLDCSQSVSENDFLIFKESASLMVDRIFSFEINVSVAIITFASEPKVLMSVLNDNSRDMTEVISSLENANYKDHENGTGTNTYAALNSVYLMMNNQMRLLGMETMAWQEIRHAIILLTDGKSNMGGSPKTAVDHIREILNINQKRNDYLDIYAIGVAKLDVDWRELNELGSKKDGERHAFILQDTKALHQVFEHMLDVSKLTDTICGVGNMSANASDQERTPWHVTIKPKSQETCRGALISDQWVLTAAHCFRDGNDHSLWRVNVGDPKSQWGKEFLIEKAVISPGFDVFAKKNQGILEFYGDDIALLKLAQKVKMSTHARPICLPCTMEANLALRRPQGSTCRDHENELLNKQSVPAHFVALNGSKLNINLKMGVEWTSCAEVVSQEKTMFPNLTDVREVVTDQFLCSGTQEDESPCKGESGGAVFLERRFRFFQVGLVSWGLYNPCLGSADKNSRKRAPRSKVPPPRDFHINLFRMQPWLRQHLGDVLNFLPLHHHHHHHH

human C2 S428A = molecular target: T2, human C2 S428A (human, UniProt P06681 21-752)
T2 sequence: T1 sequence with A394G, S408A

human C2 F270A = molecular target: T3, human C2 F270A (human, UniProt P06681 21-752)
T3 sequence: T1 sequence with F250A, A394G

human C2 N703A = molecular target: T4, human C2 N703A (human, UniProt P06681 21-752)
T4 sequence: T1 sequence with A394G, N683A

B1: RF16-226 (antibody, human IgG4 S228P, lambda)
heavy: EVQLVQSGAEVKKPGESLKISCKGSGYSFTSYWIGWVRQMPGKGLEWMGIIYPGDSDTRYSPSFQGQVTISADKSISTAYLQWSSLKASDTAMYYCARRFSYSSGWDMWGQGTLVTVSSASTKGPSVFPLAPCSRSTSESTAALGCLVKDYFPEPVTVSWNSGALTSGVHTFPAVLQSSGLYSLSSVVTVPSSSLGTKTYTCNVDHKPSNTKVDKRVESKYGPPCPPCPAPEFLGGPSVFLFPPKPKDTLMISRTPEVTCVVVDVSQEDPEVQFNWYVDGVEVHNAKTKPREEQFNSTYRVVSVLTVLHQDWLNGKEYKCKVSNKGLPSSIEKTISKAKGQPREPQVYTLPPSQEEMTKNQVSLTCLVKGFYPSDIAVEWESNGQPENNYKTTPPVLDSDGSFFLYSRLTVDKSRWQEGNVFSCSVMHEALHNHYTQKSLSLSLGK
light: SYELTQPPSVSVSPGQTARITCSGDALTSKYVAWYQQKSGLAPLLVIYEDTRRPSGIPAKFSGSSSGSVATLTISGAHGDDEADYYCYSTDASGHQRVFGGGTKLTVLSQPKAAPSVTLFPPSSEELQANKATLVCLISDFYPGAVTVAWKADGSPVKAGVETTKPSKQSNNKYAASSYLSLTPEQWKSHRSYSCQVTHEGSTVEKTVAPTECS
notes: pH-dependent anti-C2 antibody from a phage display library; also called WT
Q: Which Kd (human C2 G414A) does the source give for B1 here?
A: 11.2 nM

Q: What about the Kd (human C2 S428A) of the same binder?
A: 18.8 nM

Q: And the Kd (human C2 F270A)?
A: 96.8 nM

Q: And the Kd (human C2 N703A)?
A: 292 nM
